Measured values: patent publication US20190202912A1 (NEXTCURE, published 2019)

T1: S15-extra cellular domain (ECD) monomer (human, UniProt Q6ZMC9 20-263)
T1 construct: also called S15 monomer protein
T1 sequence: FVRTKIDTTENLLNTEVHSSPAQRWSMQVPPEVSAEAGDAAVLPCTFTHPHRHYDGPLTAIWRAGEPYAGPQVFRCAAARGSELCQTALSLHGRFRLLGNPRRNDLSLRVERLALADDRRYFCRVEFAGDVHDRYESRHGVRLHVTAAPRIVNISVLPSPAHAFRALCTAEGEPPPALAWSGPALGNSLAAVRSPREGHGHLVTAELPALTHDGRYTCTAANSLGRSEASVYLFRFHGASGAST


Biological target: T1, S15-extra cellular domain (ECD) monomer
Assay: BLI (Octet RED96), mAb on anti-human Fc sensors, S15-ECD monomer in solution, global fit
Experimental: Optimized KD experiments were performed on a ForteBio Octet RED96 instrument using anti-human Fc capture (AHC, 18-5060; ForteBio) sensors. Assay buffer was PBS containing 0.05% Tween-20 and regeneration buffer was 10 mM glycine (pH 1.5). First the antibodies were loaded at 1 μg/mL for 600 seconds. This was followed by a 60 second baseline step, a 300 second association step in S15-extra cellular domain (ECD) monomer, and finally a 1200 second dissociation step. The monomer concentrations ranged from 100 nM to 1.56 nM in a two-fold dilution series and a blank well was included. Data was processed using ForteBio's Data Analysis Software 7.0; a global fit was used, along with reference well subtraction. Reported values are the average of at least three independent octet runs.

Binder	Kd [nM]	koff [s⁻¹]	kon [M⁻¹ s⁻¹]
80A (antibody, V domains shown, Mouse anti-human Siglec-15 mAb; also called NC80) VH: QVQLKQSGAELVRPGASVKLSCRASGYTFTDFYINWVKQRPGQGLEWIARIYPGSDETYYNEKFKDKVTLTAEKSSSTAYMQLSSLTSEDSAVYFCALWFFDVWGTGTTVTVSS VL: DIVMTQSPSSLTVTAGEKVTMSCKSNQSLLNSGDQKNYLTWYQQKPGQPPKLLIYWASTRESGVPDRFTGSGSGTDFTLTISSVQAEDLAIYYCQNDYSYPLTFGAGTKLELK	0.5	0.000175	348000
93B (antibody, V domains shown, Mouse anti-human Siglec-15 mAb; also called NC93) VH: QVQLKQSGAELVRPGASVKLSCKASGYTFTDYYINWVKQRPGQGLEWIARIYPGNGNTDYNEKFKDKATLTAEKSSTTAYIQLSSLTSEDSAVYFCCLWYFDVWGTGTTVTVSS VL: DIVMTQSPSSLTVTAGEKVTMSCKSSQSLLNSGNQKNYLTWYQQKPGQPPKLLIYWASTRESGVPDRFTGSGSGTDFTLTISNVQPEDLAVYYCQNDYSFPFTFGSGTELEMK	0.88	0.000162	185000
105A (antibody, V domains shown, Mouse anti-human Siglec-15 mAb; also called NC105) VH: EVQLQQSGAELVRPGASVKLSCTASGFNIKDDYMHWVKQRPEQGLEWIGCIDPENGDIEYASRFQGKATMTADTSSNTAYLQLTSLTSADTAVYYCTTYVGFGYWGQGTLVTVSA VL: DVLMTQTPLSLPVSLGDQASISCRSSQSIVHSNGNTYLEWYLQKPGQSPKLLIYKVSNRFSGVPDRFSGSGSGTDFTLKISRVEAEDLGVYYCFQGSHVPLTFGAGTKLELK	1.39	0.000102	72000
1C12 (antibody, V domains shown, Mouse anti-human Siglec-15 mAb) VH: EVQLVESGGGLVKPGGSLKLSCAASGFSFSDYGMHWVRQAPEKGLEWVAYISSGSSILYYADIVKGRFTISRDNAKNTLFLQMTSLRSEDTAMYYCARDHYHGNGSDYWGQGTTLTVSS VL: DVLMTQTPLSLPVSLGDQASISCRSSQSIVHSNGNTYLEWYLQKPGQSPKLLIYKVSNRFSGVPDRFSGSGSGTDFTLKISRVEAEDLGVYYCFQGSHVPWTFGGGTKLEIK	4.01	0.000423	105000
6A (antibody, V domains shown, Mouse anti-human Siglec-15 mAb; also called NC6) VH: EVQLQQSGAELVRPGASVKLSCTASGFNIKDDYMHWVKQRPEQGLEWIGCIDPENGDTEYASKFQDKATITTDTSSNTAYLQLSSLTSEDTAVYYCTTYVGFAYWGQGTLVTVST VL: DVLMTQTPLSLPVSLGDQASISCRSSQSIVHSNGNTYLEWYLQKPGQSPKLLIYKVSNRFSGVPDRFSGSGSGTDFTLRISRVEAEDLGVYYCFQGSHVPLTFGAGTKLELK	2.94	0.000211	73000
77A (antibody, V domains shown, Mouse anti-human Siglec-15 mAb; also called NC77) VH: EVQLQQSGAELVRPGASVKLSCTASGFNIKDDYMHWVKQRPEQGLEWIGCIDPENGDTEYASKFQGKATITADTSSNTVYLQLSSLTSEDTAVYYCTTYVGFGYWGQGTLVTVSA VL: DVLMTQSPLSLPVSLGDQASISCRSSQNIVHSNGNTYLEWYLKKPGQSPKLLIYKVSNRFSGVPDRFSGSGSGTDFTLKISRVEAEDLGMYYCFQGSHVPLTFGAGTKLELK	1.93	0.000143	72000
1B2 (antibody, V domains shown, Mouse anti-human Siglec-15 mAb) VH: EVQLVESGGGFVKPGGSLKLSCAASGFTFSDYGMHWVRQAPEKGLEWVAYISSGSSIIYYADTVKGRFTISRDNAKNTLFLQMTSLRSEDTAMYYCARDHYHGNGSDYWGQGTTLTVSS VL: DVLMTQTPLSLPVSLGDQASISCRSSQSIVHSNGNTYLEWYLQKPGQSPKLLIYKVSNRFSGVPDRFSGSGSGTDFTLKISRVEAEDLGVYYCFQGSHVPWTFGGGTKLEIK	4.33	0.000609	143000
104B (antibody, V domains shown, Mouse anti-human Siglec-15 mAb; also called NC104) VH: QVQLQQSGPELARPGASVKLSCKASGYTFTSYGISWVKQRTGQGLEWIGQIHPRSGNTYYNENFKGKATLTAAKSSSTAYLELRSLTSEDSAVYFCAREGGPDYWGQGTTLTVSS VL: not shown	3.08	5.9e-05	23000
3H10 (antibody, V domains shown, Mouse anti-human Siglec-15 mAb) VH: EVQLQQSGAELVRPGASVKLSCTASGFNIKDYYMHWVKERPEQGLEWIGRIDPEDGDIEYDPKFQGKATMTADTSSNTAYLQFSSLTSEDTAVYYCVTDYDYDGGWFAYWGQGTLVTVSA VL: QIILTQSPAIMSASPGEKVTMTCSASSSTSFMHWYQQKPGTSPKRWIFDTSKLASGVPGRFIGSGSGTSYSLTISTMEAEDAATYYCHQRSAYPWTFGGGTKLEIK	0.6	0.000178	306000
10G9 (antibody, V domains shown, Mouse anti-human Siglec-15 mAb) VH: EVQLLETGGGLVQPGGSRGLSCEGSGFTFSDFWMSWVRQTPGKTLEWIGDINSDGSAVNYAPSIKDQFTIFRDNDKRTLHLQMINVRSEDTATYFCVRYDDYGYFDVWGTGTTVTVSS VL: QAVVTQESALTTSPGETVTLTCRSSTGAVTTSNYANWVQEKPDHLFTGLIGGTNNRAPGVPARFSGSLIGDKAALTITGAQTEDEAIYFCALWYSNHWVFGGGTKLTVL	0.55	0.000152	277000
8H8 (antibody, V domains shown, Mouse anti-human Siglec-15 mAb) VH: EVQLLETGGGLVQPGGSRGLSCEGSGFTFSGFWMSWVRQTPGKTLEWIGDINSDGSAINYAPSIKDRFTIFRDNDKNTLYLQMNNVRSEDTATYFCVRYDDYGYFDVWGTGTTVTVSS VL: QAVVTQESALTTSPGETVTLTCRSSSGAVTTGNFANWVQEKPDHLFTGLIGGTNNRAPGVPARFSGSLIGDKAALTITGAQTEDEAIYFCALWYSNHWVFGGGTKLTVL	1.3	0.00027	209000
1C3 (antibody, V domains shown, Mouse anti-human Siglec-15 mAb) VH: QVQLKQSGAELVKPGASVKISCKASGYIFTDYYVNWVKQRPGQGLEWIGKIGPGSVSIYYNEKFKGKATLTADKSSSTAYMQLSSLTSEDSAVYFCASYYYGFAYWGQGTLVTVSA VL: DIVMTQAAPSVPVTPGESVSISCRSSKSLLHSNGNTYLYWFLQRPGQSPQLLIYRMSNLASGVPDRFGGSGSGTAFTLRISRVEAEDVGFYYCMQHLEYPYTFGGGTRLEIK	0.58	0.000174	317000
6F8 (antibody, V domains shown, Mouse anti-human Siglec-15 mAb) VH: QVQLKQSGPELVRPGASVKISCEASGYTFTDYYVNWVKQRPGRGLEWIGKIGPGSVSIYYNEKFKDKATLTADKSSSTAYMQLSGLTSEDSAVYFCASYYYGFAYWGQGTLVTVSA VL: DIVMTQAAPSVPVTPGESVSISCRSSKSLLHSNGNTYLYWFLQRPGQSPQLLIYRMSNLASGVPDRFGGSGSGTAFTLRISRVEAEDVGVYYCMQHLEYPYTFGGGTKLEIKR	0.44	0.000134	304000
8C8 (antibody, V domains shown, Mouse anti-human Siglec-15 mAb) VH: QVQLKQSGAELVKPGASVKISCKASGYTFTDYYVNWVKQRPGQGLEWIGKIGPESVSIYYSEKFKAKATLTADKSSSTAYMQLSSLTSEDSAVYFCASYYYGFAYWGQGTLVTVSA VL: DIVMTQAAPSVPVTPGESVSISCRSSKSLLHSNGNTYLYWFLQRPGQSPQLLIYRMSNLASGVPDRFGGSGSGTAFTLRISRVEAEDVGVYYCMQHLEYPYTFGGGTKLEIK	0.89	0.00023	292000
99B (antibody, V domains shown, Mouse anti-human Siglec-15 mAb; also called NC99) VH: QVQLQQSGAELARPGASVKLSCKASGYTFTSDGITWLKQRTGQGLEWIGQIHPRSGNTYYNEKFKGKATLTADKSSSTAYMELRSLTSEDSAVYFCAKTGTGDYWGQGTTLTVSS VL: not shown	3.86	0.000102	32000
82B (antibody, V domains shown, Mouse anti-human Siglec-15 mAb; also called NC82) VH: QVQLQQSGAELARPGASVKLSCKASGYTFTSDGITWVKQRTGQGLEWIGQIHPRSGNTYYNGKFKGKATLTADRSSSTTYMELRSLTSEDSAVYFCAKTGTGDYWGQGTTLTVSS VL: not shown	4.84	0.0001	23000
92A (antibody, V domains shown, Mouse anti-human Siglec-15 mAb; also called NC92) VH: DVQLQESGPGLVKFSQSLSLTCSVTGYSITSGYYWNWIRQFPGNKLEWMGYIRHDGSNNYNPSLKNRISITRDTSKNQFFLKLNSVITEDTATYYCVREIYDGSSGYFDVWGTGTTVTVSS VL: QIVLTQSPAIMSASLGEEITLICSASSSVSYMHWYQQKSGTSPKLLIYRTSNLASGVPSRFSGSGSGTFYSLTISSVEAEDAADYYCHQWSSWTFGGGTQLEIK	1.42	0.00014	99000
83B (antibody, V domains shown, Mouse anti-human Siglec-15 mAb; also called NC83) VH: EVQLQQSGPELVKPGASVKMSCKASGYTFTDYNMHWVKQSHGKSLEWIGYINPNNGGTSYNQKFKDKATLTVNKSSSTAFMELRSLASEDSAVYYCARSDWEDCWGQGTTLTVSS VL: EIQMTQSPSSMSASLGDRITITCQATQDIVKNLNWYQQKPGKPPSFLIYYATELAEGVPSRFSGSGSGSDYSLTISNLESEDFADYYCLQFYEFPYTFGGGTKLEIK	1.19	0.000415	353000
